Results published in patent US12168677B2, “Proteins for the treatment of epithelial barrier function disorders” (Genevive, Inc., priority 2017, dated 2024).

B1: SG-15: 400 amino acid protein (SEQ ID NO:1) encoded by the genome of Eubacterium eligens (protein, listed as Eubacterium eligens)
chain: EYTEIRTASELVEAAKSASGNYKLMTDIDMTGVEWTPWDFSGTFDGNGHSILNLSVKTVSKKTMKTYDGNRKEYKTYGAGFFGVLTGAKVTGLDIYGARIEITTTEPCFAAPIAGLADDSDISDCIIKDTYVSLTDSAKMWGTGGIAGFGSGNLDNITTDVTLVCVDTDAAVRDEQFMGGAYAAGFLNIRNCSITIDGYDSDHGYVHDGGLVGMYMVYPLELSKTYQGEVLNNKVKGMITFFEDNTDRRAYCQANMGEVMNWTYAYSGFTSDFKRNETYDYSVTLLPEMCSNPSYTDVVTEATASDFGYTTHTCSTCGYTYSDTYTIHEHKVDSYSVVKEAASTDKKDGIEAGTCSLCNQTVYREYAANVVTDDNTQATDNKASGTAVKKGMKESTAVFA
B2: SG-16: 119 amino acid protein (SEQ ID NO:9) encoded by the genome of Eubacterium eligens (protein, listed as Eubacterium eligens)
chain: MTGCSGSKEPDNKTSVDYTVVENADLPEELKKLIESKKDKVMRLTYTTKDYTYVVAGYGTRETSGYSIKVNDVYTGDNALYIDLNLIGPAAGEAVNEVETYPVIVLKMERREESVVFKM
B3: SG-18: 267 amino acid protein (SEQ ID NO:19) encoded by the genome of Clostridium bartlettii sp. nov. (protein, listed as Clostridium bartlettii)
chain: EVDSSKEQATSKDEKQVVVATSVAITEILDRLGVEVSGVPQTSYELPESAKGATEIGSPMNPDMEIIKSLNPTDVICVDTLGSDFEKQFEENNINADFYNLSNVDGLKETIAALGEKFNKQDKANEILDEIKEVENKVNSNKKSDDKILVLFGAPGSVMVATDKSYIGNLVELAGGNNIFSNATSSFTQINLEEIIKLNPDKILVMTHAVPEAAKKSVEEELSKDLWKNVNAVKNNDITYLENGYFGMSANLQIVEAVEKLGDILYE
B4: SG-17: 327 amino acid protein (SEQ ID NO:13) encoded by the genome of Eubacterium eligens (protein, listed as Eubacterium eligens)
chain: CNSKIDVKYDYNVEDYVQLGQYENISVQVDKTSIENELIESKIKQDVEDNTTYTEVDRGAIASDQILVTYTATSSGASLSGLTNTDGKTMILGTDTLGLELDELDQALYGMTPGQTKILIVDIPEDYSSDLYKGTRVVFELTMQTVAQANVPMITNAYVKEAFGYDTVEEYRQSIKESLETDINSKVENKIQEDVLSSLQDTFKISSYPDSLMEETRSRLETSIGFYADFSNLSKDEYCQKQYGLSFDDFVKKSVVQQLIMEAIVKDRNMTMREYDYKGSLDDFAADNGYSNADTFVEKFGKDKIVKAMLVQKAQDYVIEHANISYK

Test system: HCT8 enterocytes and HT29-MTX goblet cells
Experiment: Co-culture trans-epithelial electrical resistance (TEER) assay with heat killed E. coli challenge
Type: cell-based, human
Settings: protein 1 μg/ml (40 nM) added 30 minutes before HK E. coli; TEER after 24 hours
Description: Assays were performed as described below in trans-well plates where co-cultures of multiple cell types were performed utilizing a permeable membrane to separate cells. In the apical (top) chamber, human colonic epithelial cells, consisting of a mixture of enterocytes and goblet cells, were cultured until cells obtained tight junction formation and barrier function capacity as assessed by measurement of trans-epithelial electrical resistance (TEER). In the basolateral chamber, monocytes were cultured separately. Epithelial cells were primed with inflammatory cytokines. The assays measured the effect of a therapeutic protein, i.e., SG-15, on epithelial barrier function, wound healing, and production of cytokines. Cell culture. The HCT8 human enterocyte cell line (ATCC Cat. No. CCL-244) was maintained in RPMI-1640 medium supplemented with 10% fetal bovine serum, 100 IU/ml penicillin, 100 μg/ml streptomycin, 10 μg/ml gentamicin and 0.25 μg/ml amphotericin (cRPMI). HT29-MTX human goblet cells (Sigma-Aldrich (St. Louis, MO; Cat. No. 12040401) were maintained in DMEM medium with 10% fetal bovine serum, 100 IU/ml penicillin, 100 μg/ml streptomycin, 10 μg/ml gentamicin and 0.25 μg/ml amphotericin (cDMEM). Epithelial cells were passaged by trypsinization and were used between 5 and 15 passages following thawing from liquid nitrogen stocks. U937 monocytes (ATCC Cat. No. 700928) were maintained in cRPMI medium as a suspension culture, and split by dilution as needed to maintain cells between 5×10^5 and 2×10^6 cells/ml. U937 cells were used up to passage 18 following thawing from liquid nitrogen stocks. Epithelial cell culture. A mixture of HCT8 enterocytes and HT29-MTX goblet cells were plated at a 9:1 ratio, respectively, in the apical chamber of the transwell plate as described previously (Berget et al., 2017, Int J Mol Sci, 18:1573; Beduneau et al., 2014, Eur J Pharm Biopharm, 87:290-298). A total of 10^5 cells were plated in each well (9×10^4 HCT8 cells and 1×10^4 HT29-MTX cells per well). Epithelial cells were trypsinized from culture flasks and viable cells determined by trypan blue counting. The correct volumes of each cell type were combined in a single tube and centrifuged. The cell pellet was resuspended in cRPMI and added to the apical chamber of the transwell plate. […] Monocyte culture. On day 6 of epithelial cell culture 2×10^5 cells/well U937 monocytes were plated into a 96 well receiver plate. […] Co-culture assay. […] After 24 hours fresh cRPMI was added to the epithelial cell culture plate. Trans-epithelial electrical resistance (TEER) readings were measured after the IFN-γ treatment and were used as the pre-treatment TEER values. SG-15 was then added to the apical chamber of the transwell plate at a final concentration of 1 μg/ml (40 nM). The myosin light chain kinase (MLCK) inhibitor peptide 18 (BioTechne, Minneapolis, MN) was used at 50 nM as a positive control to prevent inflammation induced barrier disruption (Zolotarevskky et al., 202, Gastroenterology, 123:163-172). The bacterially derived molecule staurosporine was used at 100 nM as a negative control to induce apoptosis and exacerbate barrier disruption (Antonsson and Persson, 2009, Anticancer Res, 29:2893-2898). […] Following pre-incubation with test compounds the transwell insert containing the enterocytes was transferred on top of the receiver plate containing U937 monocytes. Heat killed E. coli (HK E. coli) (bacteria heated to 80° C. for 40 minutes) was then added to both the apical and basolateral chambers and a multiplicity of infection (MOI) of 10. […] The TEER assays were performed with recombinantly expressed mature (lacking a signal peptide) SG-15 protein such as that described in Example 1A above. Data analysis. Raw electrical resistance values in ohms (Ω) were converted to ohms per square centimeter (Ωcm^2) based on the surface area of the transwell insert (0.143 cm^2). […]

Row | Molecule | TEER of epithelial cell barrier (percent of untreated samples)
1 | B1 | 71.4%
2 | B2 | 60.7%
3 | B3 | 71.0%
4 | B4 | 72.0%

Same assay, conditions: protein 1 μg/ml (40 nM) pre-incubated 6 hours before HK E. coli; TEER after 24 hours

Row | Molecule | TEER of epithelial cell barrier (percent of untreated samples)
5 | B1 | 68.5%
6 | B2 | about 60.0%
7 | B3 | about 85.0%
8 | B4 | about 74.2%

Test system: LPS binding protein (LBP)
Experiment: DSS model: LPS binding protein in serum (ELISA)
Type: in vivo, C57BL/6 mice
Settings: 50 nmoles/kg i.p. b.i.d.; 2.5% DSS 6 days
Description: Eight-week old C57BL/6 mice were housed 5 animals were cage and given food and water ad libitum for 7 days. Following the 7-day acclimation period, treatments were initiated concurrently with addition of 2.5% DSS to the drinking water. […] The mice were treated with 2.5% dextran sodium sulfate (DSS) in their drinking water for 6 days. Treatments were continued with SG-15 or […]-GLP2 twice a day (b.i.d.) in the morning and evening (every 8 and 16 hr) with i.p. injections at 50 nmoles/kg. Fresh 2.5% DSS drinking water was prepared every 2 days. SG-15 was also assessed for its effects on the levels of LPS binding protein (LBP) in the blood of the DSS animal with and without SG-15 administration. LPS binding protein (LBP), which has been linked to clinical disease activity in subjects with inflammatory bowel disease, was also measured by ELISA in the serum of mice tested in the DSS model described in Example 1E. […] Results are shown in FIG. 5, and are presented as mean±SEM. The graph in FIG. 5 represents data pooled from the 2 individual experiments (n=20).

Row | Molecule | LBP in serum compared to DSS mice treated with vehicle | Impact on LBP concentration compared to control peptide Gly2-GLP2
9 | B1 | significant reduction in LBP | –
10 | B2 | No change in LBP | –
11 | B4 | significant reduction in LBP | greater impact on LBP concentration

Test system: not listed separately
Experiment: DSS model: body weight
Type: in vivo, C57BL/6 mice
Settings: 50 nmoles/kg i.p. b.i.d.; 2.5% DSS 6 days; percent change from day 0
Description: Eight-week old C57BL/6 mice were housed 5 animals were cage and given food and water ad libitum for 7 days. Following the 7-day acclimation period, treatments were initiated concurrently with addition of 2.5% DSS to the drinking water. […] The mice were treated with 2.5% dextran sodium sulfate (DSS) in their drinking water for 6 days. Treatments were continued with SG-15 or […]-GLP2 twice a day (b.i.d.) in the morning and evening (every 8 and 16 hr) with i.p. injections at 50 nmoles/kg. Fresh 2.5% DSS drinking water was prepared every 2 days. Body weight was measured daily from mice included in the DSS model described in Example 1E. Percent change from starting weight on day 0 was determined for each mouse. […] Weight loss in mice treated with SG-15 at day 6 was similar to weight loss observed with […]-GLP2. The graphs in FIG. 6 represent data pooled from the 2 individual experiments (n=20).

Row | Molecule | Body weight compared to vehicle-treated DSS mice
12 | B1 | significantly improved body weight
13 | B3 | did not alter body weight
14 | B4 | did not alter body weight
